Reference: US20200299403A1

Assays:
[1] = target: HER2 (HER2/c-erb-2 gene product) on SKBR3 cells (UniProt P04626); test: FACS on SKBR3 cells, one site specific binding fit
[2] = target: HER2 (HER2/c-erb-2 gene product) on SKBR3 cells (UniProt P04626); test: FACS on SKBR3 cells, Alexa 647 Protein L detection, one site specific binding fit (column head prints 'SKBR3 Cell Binding IC50, nM')

In the case of scFv-Fc (-1) pN3F DBCO-MMAF (Fc fusion), the Kd [1] is reported as 6.8 nM.

“trastuzumab scFv (VL_VH) with pN3F at position (-1), conjugated to DBCO-MMAF” gave a Kd [2] of 14 nM.
